# Patent US10973880B2, “Compositions and methods for treating pulmonary hypertension” (Acceleron Pharma Inc., priority 2016, dated 2021)
# T1: GDF11 (Homo sapiens, UniProt O95390)
# T1 sequence (O95390 299-407): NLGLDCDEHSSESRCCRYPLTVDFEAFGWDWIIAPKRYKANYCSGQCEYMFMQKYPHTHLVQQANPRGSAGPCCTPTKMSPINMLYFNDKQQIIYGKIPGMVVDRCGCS
# T2: activin B (Homo sapiens, UniProt P09529)
# T2 sequence (P09529 293-407): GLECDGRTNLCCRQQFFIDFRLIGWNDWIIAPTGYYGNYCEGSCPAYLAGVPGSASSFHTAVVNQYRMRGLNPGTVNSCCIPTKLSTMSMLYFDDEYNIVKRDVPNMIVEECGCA
# T3: BMP9 (Homo sapiens, UniProt Q9UK05)
# T3 sequence (Q9UK05 320-429): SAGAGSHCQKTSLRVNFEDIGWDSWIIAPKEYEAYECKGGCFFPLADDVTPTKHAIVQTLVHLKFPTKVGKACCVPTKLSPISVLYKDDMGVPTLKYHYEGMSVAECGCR
# T4: BMP10 (Homo sapiens, UniProt O95393)
# T4 sequence (O95393 317-424): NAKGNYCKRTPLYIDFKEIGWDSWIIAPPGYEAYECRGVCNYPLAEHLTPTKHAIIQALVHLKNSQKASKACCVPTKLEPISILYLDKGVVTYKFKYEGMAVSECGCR
# B1: ALK4-Fc:ActRIIB-Fc heterodimer: heteromeric complex of extracellular domains of human ActRIIB and human ALK4, each separately fused to an Fc domain with a linker (protein)
# chain 1: SGPRGVQALLCACTSCLQANYTCETDGACMVSIFNLDGMEHHVRTCIPKVELVPAGKPFYCLSSEDLRNTHCCYTDYCNRIDLRVPSGHLKEPEHPSMWGPVE
# chain 2: GRGEAETRECIYYNANWELERTNQSGLERCEGEQDKRLHCYASWRNSSGTIELVKKGCWLDDFNCYDRQECVATEENPQVYFCCCEGNFCNERFTHLPEAGGPEVTYEPPPTAPT
# modifications: left off: a dimerising Fc or GST; small tags and cut ends
# notes: heteromeric complex of extracellular domains of human ActRIIB and human ALK4, each separately fused to an Fc domain with a linker
# What was measured:
# [1] = tested on: rat model of pulmonary arterial hypertension (PAH), monocrotaline (MCT) induced; assay: monocrotaline rat model of pulmonary arterial hypertension; assay type: in vivo, Sprague Dawley rats
# Procedure: The effects of an ActRIIA-mFc fusion protein (ActRIIA-mFc homodimer as described in Example 1), an ALK4-Fc-ActRIIB-Fc heterodimer (as described in Examples 12 and 13), and sildenafil (a phosphodiesterase-5 inhibitor approved for the treatment of PAH) were examined in a rat model of pulmonary arterial hypertension (PAH). In this model, Sprague Dawley rats received a […] injection of monocrotaline (MCT) to induce PAH 24 hours prior to start of therapy.
# Rats were separated into different treatment groups (10 mice per group): 1) treatment with MCT (60 mg/kg administered i.p. as a single dose at day 1 of study) and Tris buffered saline (i.p. as 1 ml/kg, every three days) (vehicle treatment group), 2) treatment with an ActRIIA-mFc polypeptide (10 mg/kg administered i.p. every three days) and MCT (60 mg/kg administered i.p. as a single dose at day 1 of study), 3) treatment with an ALK4-Fc:ActRIIB-Fc heterodimer (10 mg/kg administered i.p. every three days) and MCT (60 mg/kg administered i.p. as a single dose at day 1 of study), 4) treatment with sildenafil (30 mg/kg administered orally twice daily) and MCT (60 mg/kg administered i.p. as a single dose at day 1 of study), and 5) control rats (Tris buffered saline administered i.p. as 1 ml/kg, every three days). Rats were treated for 28 days. Body weights were recorded prior to first dose on Day 1 and then weekly throughout the study.
# On day 28, rats were anesthetized by an intraperitoneal injection of ketamine/xylazine (80/10 mg/kg). An incision was made in the neck, and a jugular vein was isolated and ligated anteriorly. A fluid-filled pressure catheter was introduced into the right jugular vein to measure pulmonary artery pressure (PAP). Another incision was made in the inguinal region, and femoral artery was isolated and ligated anteriorly. A Millar pressure catheter was introduced into a femoral artery to measure systolic arterial pressure, diastolic pressure, and heart rate. Mean arterial pressure and right PAP were monitored using the Notocord HEM (Croissy sur Seine, Frnace) v3.5 data capture system for approximately 5-10 minutes until stable measurements were obtained. During the measurements, rats were maintained at approximately 37° C. on a heating pad and body temperature was monitored throughout the procedure with a rectal temperature probe. At the conclusion of the procedure, rats were euthanized, and the hearts and lungs were removed. The entire heart was weighed. Next, the atria were removed and the left ventricle with septum (LV+S) was separated from the right ventricle (RV). The ventricles were weighed separately. Hypertrophy was assessed, in part, by calculating RV/LV+S. The lungs were also weighed.
# Similar trends were observed on vessel muscularity based on histopathologic scoring. After staining tissue samples to detect αSMA/elastin, 100 pulmonary arterioles, between 10 μm and 50 μm in size, per animal were categorized as non-muscularized, partially muscularized, or completely muscularized. Pulmonary arterioles from vehicle treated rats were determined to be 62.3% completely muscularized, 36.4% partially muscularized, and 1.4% non-muscularized. […] Histopathological scoring of smooth muscle hypertrophy of pulmonary arterioles were also recorded as follows: 0 (normal), 1 (minimal), 2 (mild), 3 (moderate), or 4 (marked).
# GDF11 = target: T1, GDF11; assay: A-204 reporter gene assay, pGL3(CAGA)12 luciferase; assay type: cell-based; conditions: Example 13
# Excerpt: Day 1: Split A-204 cells into 48-well plate. […]
# (§1) In addition, an A-204 Reporter Gene Assay was used to evaluate the effects of ALK4-Fc:ActRIIB-Fc heterodimer and ActRIIB-Fc:ActRIIB-Fc homodimer on signaling by activin A, activin B, GDF11, GDF8, BMP10, and BMP9. Cell line: Human Rhabdomyosarcoma (derived from muscle). Reporter vector: pGL3(CAGA)12 (as described in Dennler et al, 1998, EMBO 17: 3091-3100). The CAGA12 motif is present in TGFβ responsive genes (PAI-1 gene), so this vector is of general use for factors signaling through Smad2 and 3. An exemplary A-204 Reporter Gene Assay is outlined below. • Day 1: Split A-204 cells into 48-well plate. • Day 2: A-204 cells transfected with 10 ug pGL3(CAGA)12 or pGL3(CAGA)12(10 ug)+pRLCMV (1 ug) and Fugene. • Day 3: Add factors (diluted into medium+0.1% BSA). Inhibitors need to be pre-incubated with Factors for about one hr before adding to cells. About six hrs later, cells are rinsed with PBS and then lysed.
# (§2) Following the above steps, a Luciferase assay was performed.
# activin B = target: T2, activin B; assay: A-204 reporter gene assay, pGL3(CAGA)12 luciferase; assay type: cell-based; parameters: host or cells: exogenous factor added to A-204 cells (human rhabdomyosarcoma); conditions: Example 13
# Excerpt: as §1, §2
# BMP9 = target: T3, BMP9; assay: A-204 reporter gene assay, pGL3(CAGA)12 luciferase; assay type: cell-based; parameters: host or cells: exogenous factor added to A-204 cells (human rhabdomyosarcoma); conditions: Example 13
# Excerpt: as §1, §2
# BMP10 = target: T4, BMP10; assay: A-204 reporter gene assay, pGL3(CAGA)12 luciferase; assay type: cell-based; parameters: host or cells: exogenous factor added to A-204 cells (human rhabdomyosarcoma); conditions: Example 13
# Excerpt: as §1, §2
molecule,measurement,setting,value
B1,improvement in body weight,"[1]; 28 days, compared to monocrotaline treated rats, proteins 10 mg/kg i.p. every three days, sildenafil 30 mg/kg orally twice daily",+5.1%
same,decrease of right heart hypertrophy,"[1]; day 28, RV/LV+S, compared to monocrotaline treated rats",39.6%
same,decrease of lung weight,"[1]; day 28, compared to monocrotaline treated rats",19.0%
same,reduction of elevated PAP,"[1]; day 28, compared to monocrotaline treated rats, same dosing",44.6%
same,effect in reducing vascular muscularization compared with sildenafil,[1]; monocrotaline-induced model,greater effect
same,inhibition of GDF11 signaling,GDF11,potent inhibitors
same,inhibition of activin B signaling,activin B,potent inhibitors
same,inhibition of BMP9 signaling pathway compared to ActRIIB-Fc:ActRIIB-Fc homodimer,BMP9,significantly reduced
same,inhibition of BMP10 signaling pathway compared to ActRIIB-Fc:ActRIIB-Fc homodimer,BMP10,significantly reduced
